Measured values from patent US20190345207A1 (Pieris, published 2019).

Target: T1, cynomolgus LAG-3 on CHO cells stably transfected with cyLAG-3 (CHO-cyLAG-3) (cynomolgus monkey)
T1 construct: whole, on cells; also called CHO::cynomolgus LAG-3
Assay: FACS on transfected CHO cells
Protocol: To perform the experiment, LAG-3-positive and negative Flp-In CHO cells were incubated with lipocalin muteins, and bound mutein was labeled using fluorescently labeled anti-hTlc antibodies, and then the signal was detected using FACS analysis as described in this example.
5×10⁴ cells per well were pre-incubated for 1 h in ice-cold PBS containing 5% fetal calf serum (PBS-FCS). […] Cells were subsequently washed and analyzed using a intellicyt IQue Flow cytometer (Intellicyt). Fluorescent data generated by lipocalin mutein binding to LAG-3 expressing cells were analyzed by gating for LAG-3 expressing CHO cells and using Forecyt@ software and resulted geometric fluorescent mean were plotted and fitted using Graphpad software.

B1: benchmark anti-LAG-3 antibody (SEQ ID NOs: 5 and 6) (antibody, human IgG4 S228P, kappa, V domains shown)
VH: QVQLQQWGAGLLKPSETLSLTCAVYGGSFSDYYWNWIRQPPGKGLEWIGEINHRGSTNSNPSLKSRVTLSLDTSKNQFSLKLRSVTAADTAVYYCAFGYSDYEYNWFDPWGQGTLVTVSS
VL: EIVLTQSPATLSLSPGERATLSCRASQSISSYLAWYQQKPGQAPRLLIYDASNRATGIPARFSGSGSGTDFTLTISSLEPEDFAVYYCQQRSNWPLTFGQGTNLEIKR
notes: also called benchmark antibody
Question: How did the EC50 turn out when B1 was run?
Answer: The EC50 was 46.8 nM.
